# Source: PMC10825162 (Nature Communications, 2024)
# B1: BA7208 (antibody, V domains shown)
# VH: EVQLVQSGAEVKKPGESLKISCKGSGYSFTSYYWIGWVRQMPGKGLEWMGIVYPDDSDTRYSPSFQGQVTISADKSISTAYLQWSSLKASDTAMYYCVRHPGGGDWYFDLWGRGTLVTVSS
# VL: DIQMTQSPSTLSASVGDRVTITCRASQSISSWLAWYQQKPGKAPKLLIYKASSLESGVPSRFSGSGSGTEFTLTITSLQPDDFATYYCQQYDSFSWTFGQGTKLEIK
# Target: SARS-CoV-2 spike (reference strain) expressed on CHO-K1 cells (SARS-CoV-2 reference strain (Wuhan-Hu-1), UniProt P0DTC2)
# Test: flow cytometry on cells
# Details: one partner purified
binder,measurement,value
B1,binding result,binds
